Experimental data: publication PMC6408514
One block for each substance: values may come before it.

Legend:
Assay in all cases: SEC; SEC-HPLC, Superose 6, PBS pH 7.4, samples at 2 mg/mL; 24-mer assembly
[1] = molecular target: human H-chain ferritin mutant B (F81A/Q83A) (human)
[2] = molecular target: human H-chain ferritin mutant A (Q14A/D15A/R22A) (human)
[3] = molecular target: human L-chain ferritin mutant D (S5T/T14Q/S22R/L81F/D116E/A119K/A123D following H-Ft numbering) (human)
[4] = molecular target: human H-chain ferritin mutant C (Q14A/D15A/R22A/F81A/Q83A) (human)

- stoichiometry N [1]: 24
Substance: human H-chain ferritin mutant B (F81A/Q83A) (natural protein)

- stoichiometry N [2]: 24
Substance: human H-chain ferritin mutant A (Q14A/D15A/R22A) (natural protein)

- stoichiometry N [3]: 24
Substance: human L-chain ferritin mutant D (S5T/T14Q/S22R/L81F/D116E/A119K/A123D following H-Ft numbering) (natural protein)

- stoichiometry N [4]: 24
Substance: human H-chain ferritin mutant C (Q14A/D15A/R22A/F81A/Q83A) (natural protein)
